Assay results reported in PMC11900858.

How the values were obtained:
FcαμR (mouse) = FcαμR (mouse) (UniProt Q2TB54)
FcμR (mouse) = FcμR (mouse) (UniProt A1KXC4)
FcRn (mouse) = FcRn (mouse) (UniProt Q61559)
FcγRI (mouse) = FcγRI (mouse) (UniProt P26151)
FcγRIIB (mouse) = FcγRIIB (mouse) (UniProt P08101)
FcγRIII (mouse) = FcγRIII (mouse) (UniProt P08508)
Sequence of UniProt P08508 (P08508 31-261): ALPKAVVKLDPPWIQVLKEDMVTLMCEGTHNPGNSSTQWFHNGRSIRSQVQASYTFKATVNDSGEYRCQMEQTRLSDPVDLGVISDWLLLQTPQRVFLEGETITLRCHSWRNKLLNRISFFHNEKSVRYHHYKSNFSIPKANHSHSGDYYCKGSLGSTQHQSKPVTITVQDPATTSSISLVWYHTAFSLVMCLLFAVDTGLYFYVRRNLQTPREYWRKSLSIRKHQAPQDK

Sequence of UniProt Q61559 (Q61559 22-365): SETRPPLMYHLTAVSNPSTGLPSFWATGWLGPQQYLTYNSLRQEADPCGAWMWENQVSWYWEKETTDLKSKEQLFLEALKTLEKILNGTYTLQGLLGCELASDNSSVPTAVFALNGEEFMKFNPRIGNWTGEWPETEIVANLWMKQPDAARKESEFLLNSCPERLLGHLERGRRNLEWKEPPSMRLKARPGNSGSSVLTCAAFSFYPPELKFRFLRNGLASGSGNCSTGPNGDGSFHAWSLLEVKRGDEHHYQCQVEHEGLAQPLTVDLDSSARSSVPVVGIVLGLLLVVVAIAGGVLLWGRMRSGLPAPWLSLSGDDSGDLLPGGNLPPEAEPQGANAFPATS
Sequence of UniProt P08101 (P08101 30-330): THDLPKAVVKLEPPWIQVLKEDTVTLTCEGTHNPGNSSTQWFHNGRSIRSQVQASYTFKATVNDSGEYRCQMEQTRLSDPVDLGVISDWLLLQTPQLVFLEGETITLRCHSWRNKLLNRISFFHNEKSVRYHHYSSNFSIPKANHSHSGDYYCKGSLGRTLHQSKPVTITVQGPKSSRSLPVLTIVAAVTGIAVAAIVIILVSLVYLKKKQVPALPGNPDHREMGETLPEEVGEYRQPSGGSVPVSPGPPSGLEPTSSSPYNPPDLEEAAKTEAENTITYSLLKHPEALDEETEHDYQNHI
Sequence of UniProt Q2TB54 (Q2TB54 36-535): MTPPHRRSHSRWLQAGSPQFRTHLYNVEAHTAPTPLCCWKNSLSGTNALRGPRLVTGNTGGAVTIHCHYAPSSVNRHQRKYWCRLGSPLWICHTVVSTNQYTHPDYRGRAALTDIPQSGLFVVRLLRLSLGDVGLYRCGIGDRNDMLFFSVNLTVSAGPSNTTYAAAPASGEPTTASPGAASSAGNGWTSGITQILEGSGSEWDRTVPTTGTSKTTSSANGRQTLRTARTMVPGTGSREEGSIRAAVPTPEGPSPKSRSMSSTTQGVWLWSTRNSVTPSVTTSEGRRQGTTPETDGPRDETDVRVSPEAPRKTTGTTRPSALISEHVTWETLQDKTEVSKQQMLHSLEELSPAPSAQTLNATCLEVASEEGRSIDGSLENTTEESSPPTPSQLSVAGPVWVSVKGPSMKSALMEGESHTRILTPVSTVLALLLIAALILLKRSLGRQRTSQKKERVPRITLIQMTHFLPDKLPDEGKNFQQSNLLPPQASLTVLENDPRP
Sequence of UniProt A1KXC4 (A1KXC4 17-422): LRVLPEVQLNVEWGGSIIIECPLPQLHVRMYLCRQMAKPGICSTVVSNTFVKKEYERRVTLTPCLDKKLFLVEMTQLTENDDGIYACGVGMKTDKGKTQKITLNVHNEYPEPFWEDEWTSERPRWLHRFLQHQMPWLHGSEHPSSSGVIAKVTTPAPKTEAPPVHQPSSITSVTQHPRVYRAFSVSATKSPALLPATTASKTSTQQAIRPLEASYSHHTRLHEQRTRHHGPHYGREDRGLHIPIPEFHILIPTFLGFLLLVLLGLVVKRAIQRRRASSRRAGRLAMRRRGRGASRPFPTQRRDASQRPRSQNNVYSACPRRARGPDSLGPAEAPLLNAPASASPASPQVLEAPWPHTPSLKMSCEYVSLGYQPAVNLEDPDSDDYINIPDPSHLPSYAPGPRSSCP
Sequence of UniProt P26151 (P26151 25-404): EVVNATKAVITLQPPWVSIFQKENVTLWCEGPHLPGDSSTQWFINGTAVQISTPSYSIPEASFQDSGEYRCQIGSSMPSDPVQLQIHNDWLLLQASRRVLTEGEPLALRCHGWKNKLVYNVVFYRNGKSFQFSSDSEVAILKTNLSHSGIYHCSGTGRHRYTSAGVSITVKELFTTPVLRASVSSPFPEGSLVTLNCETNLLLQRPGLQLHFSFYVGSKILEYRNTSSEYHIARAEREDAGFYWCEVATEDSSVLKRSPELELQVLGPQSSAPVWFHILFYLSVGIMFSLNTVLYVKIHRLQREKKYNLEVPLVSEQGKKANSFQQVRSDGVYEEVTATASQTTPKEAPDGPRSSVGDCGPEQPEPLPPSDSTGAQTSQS

T15 IgM (murine monoclonal anti-phosphocholine antibody of the T15 idiotype, IgM form) (from UniProt P01592 22-159)
< 5%: adhesion of T15 IgM-opsonized Spn6A pneumococci to CHO cells stably expressing the receptor (MOI 1, T15 antibody 50 μg/ml); no notable increase; anti-capsule antibody control 85% binding (FcαμR (mouse)) | adhesion of T15 IgM-opsonized Spn6A pneumococci to CHO cells stably expressing the receptor (MOI 1, T15 antibody 50 μg/ml); no notable increase; anti-capsule antibody control 85% binding (FcμR (mouse))

T15 IgG3 (murine monoclonal anti-phosphocholine antibody of the T15 idiotype, IgG3 form)
< 5%: adhesion of T15 IgG3-opsonized Spn6A pneumococci to CHO cells stably expressing the receptor (MOI 1, T15 antibody 50 μg/ml); no notable increase; anti-capsule antibody control 85% binding (FcRn (mouse)) | adhesion of T15 IgG3-opsonized Spn6A pneumococci to CHO cells stably expressing the receptor (MOI 1, T15 antibody 50 μg/ml); no notable increase; anti-capsule antibody control 85% binding (FcγRI (mouse)) | adhesion of T15 IgG3-opsonized Spn6A pneumococci to CHO cells stably expressing the receptor (MOI 1, T15 antibody 50 μg/ml); no notable increase; anti-capsule antibody control 85% binding (FcγRIIB (mouse)) | adhesion of T15 IgG3-opsonized Spn6A pneumococci to CHO cells stably expressing the receptor (MOI 1, T15 antibody 50 μg/ml); no notable increase; anti-capsule antibody control 85% binding (FcγRIII (mouse)) | adhesion of T15 IgG3-opsonized Spn6A pneumococci to CHO cells stably expressing the receptor (MOI 1, T15 antibody 50 μg/ml); no notable increase; anti-capsule antibody control 85% binding (FcγRIV (mouse))
